Our source for the EC50 values is patent US20210054016, “Enzymatic RNA Capping Method” (NEW ENGLAND BIOLABS, INC., published 2021).

In general, EC50 refers to the midpoint of the concentration-response curve. Low readings indicate an effect from little substance, high ones a need for much substance.

The data set has as its target Vaccinia capping enzyme (VCE) (Vaccinia virus, UniProt P04298;P04318 P04298:1-844,P04318:1-287). The data set is described as follows: Cap50, 37 C, 30 min, 500 nM RNA, 1 mM MgCl2; 0.94 at 45 C, 4.08 at 50 C, 30.00 at 55 C.

B1: RNA1 (ssRNA)
RNA: GUAGAACUUCGUCGAGUACGCUCAA
modifications: 5' triphosphate
The molecule B1 returned an EC50 of 3.06 nM.
